Patent US20210024646A1 (FUDAN UNIVERSITY, published 2021)

Assays:
[1] = biological target: T1, extracellular domain of human CD73 protein (CD73-ECD), C-terminus polyhistidine-tagged (human, UniProt P21589 27-547); test: ELISA, coated CD73-ECD
T1 construct: also called Human CD73-ECD; human recombinant CD73 enzyme (CD73 extracellular domain)
T1 sequence: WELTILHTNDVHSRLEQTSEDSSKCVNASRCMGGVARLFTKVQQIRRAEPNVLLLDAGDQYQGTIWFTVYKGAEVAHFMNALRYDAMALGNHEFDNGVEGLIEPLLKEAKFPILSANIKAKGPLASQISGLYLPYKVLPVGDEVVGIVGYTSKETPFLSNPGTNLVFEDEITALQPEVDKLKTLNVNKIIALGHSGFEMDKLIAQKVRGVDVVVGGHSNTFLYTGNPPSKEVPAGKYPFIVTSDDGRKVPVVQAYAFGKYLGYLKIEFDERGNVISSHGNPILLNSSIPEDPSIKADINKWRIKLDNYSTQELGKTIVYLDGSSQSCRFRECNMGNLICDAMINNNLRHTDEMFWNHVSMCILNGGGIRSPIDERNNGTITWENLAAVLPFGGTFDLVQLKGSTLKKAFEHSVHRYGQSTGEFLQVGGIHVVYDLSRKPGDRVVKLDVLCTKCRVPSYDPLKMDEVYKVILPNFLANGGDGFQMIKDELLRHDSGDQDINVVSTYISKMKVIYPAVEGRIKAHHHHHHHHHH

[2] = biological target: T2, CD73 on the surface of human tumor cells (human, UniProt P21589 27-549); test: confocal microscopy, 5 µg/mL antibody, MDA-MB-231 cells
T2 construct: whole, on cells; One entry for endogenous CD73 on all cell lines; the cell line is named under assay or readout; also called CD73 receptors on the surface of tumor cells; tumor cell CD73
T2 sequence (looked up): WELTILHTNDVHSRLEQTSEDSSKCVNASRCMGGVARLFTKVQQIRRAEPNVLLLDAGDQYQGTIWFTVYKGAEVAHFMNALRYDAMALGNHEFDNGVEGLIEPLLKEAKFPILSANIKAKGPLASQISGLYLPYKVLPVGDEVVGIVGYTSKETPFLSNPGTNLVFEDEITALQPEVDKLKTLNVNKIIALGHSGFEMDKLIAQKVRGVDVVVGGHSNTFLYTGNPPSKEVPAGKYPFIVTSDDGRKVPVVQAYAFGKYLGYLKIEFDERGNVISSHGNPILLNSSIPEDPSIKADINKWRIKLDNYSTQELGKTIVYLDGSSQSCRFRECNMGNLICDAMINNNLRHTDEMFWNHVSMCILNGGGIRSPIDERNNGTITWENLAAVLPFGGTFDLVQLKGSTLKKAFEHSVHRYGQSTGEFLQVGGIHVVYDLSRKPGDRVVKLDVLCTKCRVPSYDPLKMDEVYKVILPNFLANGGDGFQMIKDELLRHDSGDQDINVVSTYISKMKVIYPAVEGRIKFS
Procedure: The antibodies (5 μg/mL) were incubated with the cells at 4° C. for 1 hour, or at 37° C. for 4 hours, and then placed under a laser scanning confocal microscope to observe the results.
MDA-MB-231 cells of 50% density were spread in a laser confocal culture dish, cultured at 37° C. for 16 hours, and then 5 μg/mL CD73 antibody was added. The cells were incubated at 37° C. for 4 hours or 4° C. for 1 hour, washed three times with PBS to remove the antibodies unbound to the cells, and immobilized with 4% paraformaldehyde at room temperature for 30 minutes. The cells were washed three times with PBS and permeabilized with 0.4% Triton X-100 for 10 minutes. The cells were washed three times with PBS, the Lamp-2 (rabbit anti-human) antibody was added and incubated at 37° C. for 1 hour to mark the position of cell lysosome. The unbound antibodies were washed off with PBS, and R-PE-labeled goat anti-human and Alexa Fluor 488-labeled donkey anti-rabbit secondary antibodies were added and incubated at 37° C. for 30 min.

[3] = biological target: T2, CD73 on the surface of human tumor cells; test: FACS, purified antibody serial dilution, MDA-MB-231 cells
[4] = biological target: T2, CD73 on the surface of human tumor cells; test: flow cytometry, NCI-H1299 cells
[5] = biological target: T2, CD73 on the surface of human tumor cells; test: FACS, NCI-H1299 cells
Procedure: Alternatively, 100 μL of mAb001c, mAb002c, mAb004c diluted in a 3-fold gradient from 100 nM to 0.046 nM were used as primary antibodies and mixed with 1×10⁵ NCI-H1299 cells suspended in 100 μL RPMI-1640 serum-free medium. Then the obtained solutions were incubated at 4° C. for 1 h, the cells were washed twice with PBS to remove unbound primary antibody, and the target cells were incubated with 200 μL PE-labeled secondary antibody (2 μg/mL) at 4° C. for 30 min. The cells were washed twice with PBS to remove unbound secondary antibody. Finally, the cells were resuspended in 200 μL PBS, and the binding affinities of the test antibodies to CD73 on the cell surface were determined by a flow cytometer.
With reference to the methods in Examples 4-8, the ELISA affinity to CD73-ECD protein, the inhibitory activity on recombinant human CD73 enzyme, the binding affinity to tumor cells, and the inhibitory activity on CD73 enzyme of tumor cells of the above prepared MEDI9447-κ as well as the antibodies mAb001c and mAb002c were detected.

[6] = biological target: T2, CD73 on the surface of human tumor cells; test: FACS, 5 µg/mL antibody, CD73-high Calu-1 against CD73-low MDA-MB-453 cells
Procedure: 3×10⁵ tumor cells were mixed well with the antibody (final concentration was 5 μg/mL), and then incubated at 4° C. for 1 h. The cells were washed twice with PBS to remove the unbound primary antibody. Then the target cells were incubated with PE-labeled secondary antibody at 4° C. for 30 minutes. The cells were washed twice with PBS to remove the unbound secondary antibody. Finally, the cells were resuspended in 200 μL PBS and the binding rate was detected with a Fluorescence Activated Cell Sorter (FACS).
The chimeric antibody could specifically recognize and bind tumor cells with CD73 high expression.

[7] = biological target: T1, extracellular domain of human CD73 …; test: cell-based or functional assay
[8] = biological target: T2, CD73 on the surface of human tumor cells; test: cell-based or functional assay
[9] = biological target: T2, CD73 on the surface of human tumor cells; test: FACS, MDA-MB-231 cells
[10] = biological target: T2, CD73 on the surface of human tumor cells; test: flow cytometry, MDA-MB-231 cells

B1: Hu001c-14 (antibody, V domains shown)
VH: QVQLVQSGAEVKKPGASVKVSCKTSGYTFTNYYIYWVRQAPGQRLEWMGWIYPGNLNIKYNEKFKGRVTITADTSASTAYMELSSLRSEDTAVYYCARDDNYAWFAYWGQGTLVTVSS
VL: DIQMTQSPSSLSASVGDRVTITCKASQDVSTAVAWYQQKPGKAPKLLIYWTNTRHTGVPSRFSGSGSGTDHTLTISSLQPEDFATYYCQQHYSTPFTFGQGTKLEIK
notes: Humanized
[1]
  binding result: binds
[2]
  binding result: binds

B2: Hu001c-15 (antibody, V domains shown)
VH: QVQLVQSGAEVKKPGASVKVSCKTSGYTFTNYYIYWVRQAPGQRLEWMGWIYPGNLNIKYNEKFKGRVTITADTSASTAYMELSSLRSEDTAVYYCARDDNYAWFAYWGQGTLVTVSS
VL: DIQMTQSPSSLSASVGDRVTITCKASQDVSTAVAWYQQKPGKSPKLLIYWTNTRHTGVPSRFSGSGSGTDHTLTISSLQPEDFATYYCQQHYSTPFTFGQGTKLEIK
notes: Humanized
[1]
  binding result: binds
[2]
  binding result: binds

B3: mAb001 (antibody, IgG1, V domains shown)
VH: QVQLQQSGPELVKPGASVRISCKTSGYTFTNYYIYWVKQRPGQGLEWIGWIYPGNLNIKYNEKFKGKSTLTADKSSSTAFMQLSSLTSEDSAVYFCARDDNYAWFAYWGQGTLVTVSS
VL: DIVMTQSHKFMSTSIGDRVSITCKASQDVSTAVAWYQQKPGQSPKLLIYWTNTRHTGVPDRFTGNTSGTEHTLTISSVQAEDLALYYCQQHYSTPFTFGSGTTLEIK
[3]
  EC50: 1.24 nM

B4: mAb004 (antibody, IgG2b, V domains shown)
VH: EVQLQQSGPELVKPGASVKIPCKASGYTFTDYNMDWVKQSHGKSLEWIGDINPNNGGSVYNQKFKGKATLTVDKSSSTAYMELRSLTSEDTAVYYCGRITGTGYWSFDVWGTGTTVTVSP
VL: DIQMTQSPASLSVSVGETVTITCRASENIYSNLAWYQQKQGKSPQLLVYGATNLAEGVPSRFSGSGLGTQYSLKISSLQSEDFGSYYCQHFWGIPWTFGGGTKLEIK
[3]
  EC50: 4.69 nM

B5: mAb002c (antibody, V domains shown)
VH: QVQLQQPGAELVKPGASVRLSCKASGYTLTSYWMHWVKKRPGQGLEWIGEINPSNGRSNYNEKFKSKATLTVDRSSSTVYMQLGSLTSEDSAVYYCARRGVSGNYFDYWGQGTTLTVSS
VL: DIKMTQSPSSMYASLGERVTMTCKASQDINTYLSWFQQKPGKSPKTLIYRSNILVDGVPSRFSGSRSGQDYYLTITSLEYEDMGIYYCLQYDEFPYTFGGGTKLELK
notes: also called human-mouse chimeric antibody mAb002c
[4]
  EC50: 0.39 nM
[5]
  EC50: 0.391 nM
[6]
  difference in binding rate (MFI), Calu-1 against MDA-MB-453: 978 times
[7]
  IC50, inhibition of AMP hydrolysis by recombinant human CD73 (CellTiter-Glo): 0.031 nM
[1]
  EC50: 0.016 nM
[8]
  Calu-1 CD73 Enzyme Inhibition IC50: 0.281 nM
  MDA-MB-231 CD73 Enzyme Inhibition IC50: 0.791 nM
  NCI-H1299 CD73 Enzyme Inhibition IC50: 0.191 nM
[9]
  EC50: 0.356 nM
[10]
  EC50: 0.36 nM

B6: mAb002 (antibody, IgG1, V domains shown)
VH: QVQLQQPGAELVKPGASVRLSCKASGYTLTSYWMHWVKKRPGQGLEWIGEINPSNGRSNYNEKFKSKATLTVDRSSSTVYMQLGSLTSEDSAVYYCARRGVSGNYFDYWGQGTTLTVSS
VL: DIKMTQSPSSMYASLGERVTMTCKASQDINTYLSWFQQKPGKSPKTLIYRSNILVDGVPSRFSGSRSGQDYYLTITSLEYEDMGIYYCLQYDEFPYTFGGGTKLELK
[3]
  EC50: 0.65 nM
